Test [1] deals with Fc receptors on human cells (γIFN-induced monocytes, γIFN-induced THP-1 cells, ADCC effector cells). Description: cell-based or functional assay.
For test [2], the target named is baboon CD4 on lymphocytes (baboon). The test can be described thus: flow cytometry on lymphocytes of different species. On the technique in general: A flow cytometer gives signals particle by particle.
The target in test [3] is human CD4 on cells (human) (UniProt P01730). Description: cell-based or functional assay.

In the case of “CE9.1 monkey/human chimeric anti-CD4 monoclonal antibody (ATCC No. 69030 construct) (from UniProt P01857 1-330)”, in test [1], the ADCC, concentration at maximal cytotoxicity came to 6 µg/mL; the ADCC, total specific lysis of SupT1 cells was determined as 50%; the ED50 of cell-cell adhesion (γIFN activated fresh monocytes and CD4+ SupT1 T cells) came out at 0.02 µg/mL. In test [2], this substance displayed a fold lower reactivity than human of 10 fold.
In test [3], CE9γ4λK (antibody) displayed an IL-2 Production (IC50), three way MLR of 0.02 µg/mL and a Proliferation (IC50), three way MLR of 0.02 µg/mL.

The record behind these values is patent US7338658.
